This passage reports Kd results from US20220411533A1 (Boehringer Ingelheim, published 2022).

First the molecules themselves.
T1: human Trop2 recombinantly expressed on HEK293 cells (full-length, C-terminal Myc-DDK-tag) (human, UniProt P09758 27-323)
T1 construct: UniProt P09758 is printed for human TROP2; also called trophoblast cell-surface antigen 2; not shown: C-terminal Myc-DDK-tag of the Origene construct #RC202519
T1 sequence: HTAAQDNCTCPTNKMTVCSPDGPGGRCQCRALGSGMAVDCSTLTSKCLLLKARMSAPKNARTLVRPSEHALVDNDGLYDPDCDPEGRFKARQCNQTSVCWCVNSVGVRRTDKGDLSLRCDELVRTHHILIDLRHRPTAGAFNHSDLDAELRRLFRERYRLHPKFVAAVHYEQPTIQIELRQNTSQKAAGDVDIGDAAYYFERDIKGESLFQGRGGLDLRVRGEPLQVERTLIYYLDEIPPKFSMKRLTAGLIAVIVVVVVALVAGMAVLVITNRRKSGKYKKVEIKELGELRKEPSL

B1: Trop2#1 (antibody, V domains shown)
VH: EVQLQQSGPELLKPGASVKISCKASGYTFTDYTMHWVKQSHGKSLEWIGGIYPNYGDTNYNEKFKDKATLTVDESSSTAYMELRSLTSEDSAVYYCSRKTVLLRLRYFDVWGTGTTVTVSS
VL: DIQMTQSPASLSASVGETVTITCRASGNIHNYLAWYQQKQGKSPQLLVYNAITLADGVPSRFSGSGSGTQYSLKINSLQPEDFGSYYCQHFWSTPFTFGSGTKLEIK
B2: Trop2#7 (antibody, V domains shown)
VH: EVQLQQSGPELVKPGASVKMSCRASGYTFTSYAMHWVKQKPGQGLEWIGYINPYNGGTKYNEKFKGRATLTSDKSSSTAYMELSSLTSEDSAVYYCAREGIYYGAWFAYWGQGTLVTVSA
VL: DIQMTQSSSSFSVSLGDRVTITCKASEDIYNRLAWFQQKPGNAPRLLISGATSLETGVPSRFRGSRSGKDYTLSITSLQTEDVATYYCQQYWSTWTFGGGTKLEIK
B3: Trop2#5 (antibody, V domains shown)
VH: EVQLQQSGPDLVKPGASVKMSCKASGFIFTDYYMNWVKQSHGKSLEWIGYIYPNNGATAYNQKFKGKATLTVDKSSSTAYMELRSLTSEDSAVYYCARESDFYAMDYWGQGTSVTVSS
VL: DVVMTQTPLSLPVSLGDQASISCRSSQSLVHSHGNIYLHWYLQKPGLSPKLLIFKVSNRFSGVPDRFSGSGSGTDFTLKISRVEAEDLGVYFCSQSTHVWTFGGGTKLEIK

The target in this experiment is T1, human Trop2 recombinantly expressed on …. As to the kind of experiment: flow cytometry based Scatchard method on HEK293 cells expressing Trop2.
On to B1, for which the Kd turned out to be 2.2 nM. To B2 belongs 0.4 nM; to B3, 0.6 nM.
